T1: Siglec-5-Fc (R&D systems) (UniProt O15389 17-434, limits assumed)
T1 construct: Bought reagent; not shown: Fc part of the bought fusion; not described
T1 sequence (looked up): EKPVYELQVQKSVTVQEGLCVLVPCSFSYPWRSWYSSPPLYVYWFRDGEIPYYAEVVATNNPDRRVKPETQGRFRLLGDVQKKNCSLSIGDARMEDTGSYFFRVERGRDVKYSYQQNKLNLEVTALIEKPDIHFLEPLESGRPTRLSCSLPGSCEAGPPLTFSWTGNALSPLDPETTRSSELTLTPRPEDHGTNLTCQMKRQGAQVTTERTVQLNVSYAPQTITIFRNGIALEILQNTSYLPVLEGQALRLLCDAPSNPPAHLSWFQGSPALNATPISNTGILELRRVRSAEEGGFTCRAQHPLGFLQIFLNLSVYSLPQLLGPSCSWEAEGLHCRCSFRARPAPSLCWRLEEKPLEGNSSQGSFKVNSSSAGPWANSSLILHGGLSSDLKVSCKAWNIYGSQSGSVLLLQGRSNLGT


How the values were obtained:
[1] = molecular target: T2, Siglec-9 protein (construct not stated; antigen of Examples 3 and 4) (human, UniProt Q9Y336 18-348, limits assumed); experiment: SPR (Carterra LSA), antibody coupled to HC2000M chip, antigen at 20, 100 and 500 nM
T2 sequence (Q9Y336 18-348 limits assumed): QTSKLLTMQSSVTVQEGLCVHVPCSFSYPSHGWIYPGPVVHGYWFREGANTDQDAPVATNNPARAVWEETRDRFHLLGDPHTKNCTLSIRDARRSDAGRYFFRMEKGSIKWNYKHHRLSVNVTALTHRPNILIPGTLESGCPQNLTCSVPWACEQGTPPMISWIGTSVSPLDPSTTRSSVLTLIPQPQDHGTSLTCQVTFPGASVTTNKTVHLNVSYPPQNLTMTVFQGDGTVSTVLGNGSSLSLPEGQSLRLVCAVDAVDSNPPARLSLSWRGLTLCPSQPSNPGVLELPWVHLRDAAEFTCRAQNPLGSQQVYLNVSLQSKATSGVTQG
Procedure: KD determination was performed by SPR by individually coating the antibodies to HC2000M chips via sulpho-NHS/EDC coupling chemistry. Chips were afterwards blocked with ethanolamine. Antigen was applied in one of the three different concentrations (20 nM, 100 nM and 500 nM) with a contact time of 240 s, followed by a dissociation phase of 120 s. After each antigen incubation, the bound antigen was removed from the antibodies with 10 mM glycine at pH 2.0. All kinetic parameters (kₒₙ, koff and KD) were determined using a kinetic fitting program (LSA Kinetics, Carterra).

[2] = molecular target: T2, Siglec-9 protein (construct not stated; …); experiment: ELISA, coated Siglec-9 1 µg/ml, antibody titrated, anti-human Fab detection, Abs 450 nm, three-parameter fit, n=3
Procedure: FIG. 2: Binding curves of monoclonal antibodies (68D4 and 224B1; comparative monoclonal antibodies mAbA and 5C6 & negative control 53C3) towards Siglec-9 as analysed by ELISA. Binding of the monoclonal antibody to Siglec-9, as determined by measurement of the accumulated coloured product at 450 nm after stopping the reaction, is plotted against the concentration of the monoclonal antibody under evaluation.
Antibody binding affinity towards Siglec-9 was measured by a dilution series of the analysed antibodies on a fixed concentration of Siglec-9 protein in ELISA. To this end, Siglec-9 was coated at 1 μg/ml in 50 mM carbonate-bicarbonate buffer pH 9.6 for 15-20 hours at 4° C. Antigen solution was washed away (Tecan Hydrospeed) and plates were blocked with 5% skimmed milk in phosphate-buffered saline (PBS) for 1 hour at room temperature. Plates were washed and antibodies were added at concentrations of 0-420 nM. […] Bound antibodies were detected by addition of horseradish peroxidase (HRP)-coupled secondary antibodies. Rabbit antibodies were detected by polyclonal anti-rabbit IgG antibody (Biolegend), mAbA by anti-human Fab fragment (Sigma Aldrich). […] Absorbance was detected at 450 nm (Tecan, CM […] MONO 200). Data were fitted and EC50 values were determined by three-parameter analysis in GraphPad Prism (GraphPad Software)

[3] = molecular target: T3, Siglec-9-Fc (in-house production); experiment: blocking assay: Calcein-AM labelled sialic acid-displaying A549 tumour cells binding to plate-captured Siglec-9-Fc, antibody titrated, n=3
T3 construct: The entry holds the Siglec-9 part and the Fc together; also called Siglec-9-Fc protein
T3 sequence (chain, as listed by the source limits assumed): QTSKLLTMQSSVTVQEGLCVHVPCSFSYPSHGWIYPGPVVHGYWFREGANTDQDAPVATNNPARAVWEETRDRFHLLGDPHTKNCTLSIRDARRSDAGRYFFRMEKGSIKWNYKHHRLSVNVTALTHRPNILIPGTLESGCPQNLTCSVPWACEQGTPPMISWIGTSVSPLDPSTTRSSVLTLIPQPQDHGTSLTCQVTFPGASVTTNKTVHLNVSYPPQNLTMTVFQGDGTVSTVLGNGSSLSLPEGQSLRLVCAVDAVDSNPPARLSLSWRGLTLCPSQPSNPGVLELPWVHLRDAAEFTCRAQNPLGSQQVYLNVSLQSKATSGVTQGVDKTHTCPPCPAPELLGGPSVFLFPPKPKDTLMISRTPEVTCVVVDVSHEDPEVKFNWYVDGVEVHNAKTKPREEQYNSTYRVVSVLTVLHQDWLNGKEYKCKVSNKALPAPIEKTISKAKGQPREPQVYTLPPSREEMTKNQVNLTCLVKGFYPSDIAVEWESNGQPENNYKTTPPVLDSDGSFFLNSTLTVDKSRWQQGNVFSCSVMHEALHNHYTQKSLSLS
Procedure: FIG. 4: Titration of monoclonal antibodies (68D4 and 224B1; comparative monoclonal antibodies mAbA and 5C6 & negative control 53C3) to determine blocking the binding of sialic acid-displaying A549 tumour cells to Siglec-9. Tumour cells were fluorescently-loaded with Calcein-AM in advance to the binding experiment and binding was determined by the released fluorescence upon cell lysis. Fluorescence released in the absence of antibody was set to 100% binding. Data was fitted by three-parameter analysis in GraphPad Prism (GraphPad Software); n=3.
To analyse if anti-Siglec-9 antibodies recognize the ligand-binding domain and block the binding of Siglec-9 to its ligands, sialic acids, we performed a cell-based assay where the binding of sialic-acid expressing A549 tumour cells to Siglec-9-Fc is evaluated in ELISA. ELISA-plates were coated with 3 μg/ml Protein-A (Thermo Fisher Scientific) overnight at 4° C. Plates were blocked with PBS, 1% BSA for 1 h, and incubated with 5 μg/ml Siglec-9-Fc for 1 h at RT. Anti-Siglec-9 antibodies at different concentrations (starting at 8 μg/ml or 53 nM); were mixed 1:1 with Calcein-AM (Thermo Fisher Scientific) labeled A549 tumour cells. The mixture was added to the ELISA plate and incubated for 1 h at 4° C. After washing of the plate, cells that were bound to the plate were lysed with PBS, 1% Triton-X 100 and released fluorescence was measured at an excitation of 485 nm and emission of 535 nm with a Synergy H1 (BioTek). Data were fitted by three-parameter analysis in GraphPad Prism (GraphPad Software).

[4] = molecular target: T1, Siglec-5-Fc (R&D systems); experiment: ELISA, coated Siglec-5-Fc 1 µg/ml, single antibody concentration, Abs 450 nm, n=3
Procedure: Specificity towards Siglec-5, Siglec-7, Siglec-8, Siglec-15 and Siglec-9 was assayed in enzyme-linked immunosorbent assay (ELISA) using 96 well half-area ELISA plates (Corning). Siglec-5-Fc (R&D systems), Siglec-7-Fc (in-house production, Siglec-7-Fc protein used had the following amino acid sequence:
(SEQ ID NO: 59)) […] […] […] […] […] […] […] […] […] […] […] […], Siglec-8-Fc (R&D systems), Siglec-15- Fc (R&D systems) and Siglec-9-Fc (in-house production, SEQ ID NO: 11) were coated at 1 μg/ml in 50 mM carbonate-bicarbonate buffer pH 9.6 for 15-20 hours at 4° C.
Antigens were washed away (Tecan Hydrospeed) and plates were blocked with 5% skimmed milk in phosphate-buffered saline (PBS). After washing the plates, antibodies were added at 5 μg/ml (33 nM) in 0.5% milk PBS in triplicates. Plates with antibodies were incubated for 1 hour at room temperature. Plates were washed and bound antibodies were detected by horseradish peroxidase (HRP)-labeled polyclonal anti-rabbit IgG antibody (Biolegend) or anti-human Fab fragment for mAbA (Sigma Aldrich). 3,3′,5,5′-Tetramethylbenzidine (TMB; Sigma Aldrich) development was stopped by addition of sulfuric acid and absorbance was detected at 450 nm (Tecan, CM […] MONO 200).

Kd [1] [nM]	koff [1] [s⁻¹]	kon [1] [M⁻¹ s⁻¹]	EC50 [2] [nM]	binding result [3]	binding result [4]	Binder
2.5	0.00053	210000	0.42	binds		comparative monoclonal antibody mAbA (WO 2017/153433), mouse-human chimera (antibody, human IgG1, kappa, V domains shown) VH: QVQLQQPGAELVKPGSPVKLSCKASYFTFTSYWMHWVRQRPGQGLEWIGEINPSNGHTNYNEKFESKATLTVDRSSSTAYMQLSSLTSEDSAVFYCANGVESYDFDDALDYWGQGTSVTVSS VL: DIQMTQTTSSLSASLGDRVTISCRASQDINNYLNWYQQKPDGTIKLLIYYTSRLHSGVPSRFSGSGSGTDYSLTINNLEQEDIATYFCQQGNTLPFTFGGGTKLEIKR
5.1	0.0012	230000		binds	no binding (tested: 5 µg/ml)	monoclonal antibody 224B1 (rabbit) (antibody, V domains shown) VH: QSVEESGGRLVTPETPLTLTCTASGFSLSSYYMSWVRQAPGKGLEWIGYIWTDGSAHYATWTKGRFTISKTSSTTVDLKITSPTTEDTATYFCVRANSGSHTYIEKFNLWGPGTLVTVSS VL: DVVMTQTPASVEATVGGSVTIKCQASPSINDELSWYQQKPGQRPTLLIYEASALESGVPSRFKGSGSGTEFTLTIGDLECADAATYYCQCTYGSRSDISYGNTFGGGTEVVVKG
